This passage reports Km results from article PMC10991452, “Bioeconomic production of high-quality chitobiose from chitin food wastes using an in-house chitinase from Vibrio campbellii” (Bioresources and Bioprocessing, 2022).

Substrate in the series: CC(=O)N[C@H]1[C@H](Oc2ccc([N+](=O)[O-])cc2)O[C@H](CO)[C@@H](O[C@@H]2O[C@H](CO)[C@@H](O)[C@H](O)[C@H]2NC(C)=O)[C@@H]1O
Briefly: purified protein. In kind it is biochemical, Vibrio harveyi. Conditions: 0.1 M sodium acetate pH 5.5, 30 °C, 10 min, 0-500 µM substrate.

B1: VhChiA (Vibrio harveyi) (protein)
chain: APTAPSIDMYGSNNLQFSKIELAMETTSGYNDMVKYHELAKIKVKFNQWSGTSGDTYNVYFDGVKVATGAITGSQTTASFEYGQGGLYQMEIEACDATGCSKSAPVEITIADTDGSHLKPLTMNVDPNNKSYNTDPSIVMGTYFVEWGIYGRDYTVDNMPVDNLTHILYGFIPICGPNESVKSVGGNSFNALQTACRGVNDYEVVIHDPWAAYQKSFPQAGHEYSTPIKGNYAMLMALKQRNPDLKIIPSIGGWTLSDPFYDFVDKKNRDTFVASVKKFLKTWKFYDGVDIDWEFPGGGGAAADKGDPVNDGPAYIALMRELRVMLDELEAETGRTYELTSAIGVGYDKIEDVDYADAVQYMDYIFAMTYDFYGGWNNVPGHQTALYCGSFMRPGQCDGGGVDENGEPYKGPAYTADNGIQLLLAQGVPANKLVLGTAMYGRGWEGVTPDTLTDPNDPMTGTATGKLKGSTAQGVWEDGVIDYKGIKSFMLGANNTGINGFEYGYDAQAEAPWVWNRSTGELITFDDHRSVLAKGNYAKSLGLAGLFSWEIDADNGDILNAMHEGMAGGVVTPPNR
With B1, the Km amounted to 216 µM.
